{
  "source": "IntAct's records for PubMed 19402751",
  "target": "T1, tim_drome tim (UniProt P49021)",
  "T1 sequence": "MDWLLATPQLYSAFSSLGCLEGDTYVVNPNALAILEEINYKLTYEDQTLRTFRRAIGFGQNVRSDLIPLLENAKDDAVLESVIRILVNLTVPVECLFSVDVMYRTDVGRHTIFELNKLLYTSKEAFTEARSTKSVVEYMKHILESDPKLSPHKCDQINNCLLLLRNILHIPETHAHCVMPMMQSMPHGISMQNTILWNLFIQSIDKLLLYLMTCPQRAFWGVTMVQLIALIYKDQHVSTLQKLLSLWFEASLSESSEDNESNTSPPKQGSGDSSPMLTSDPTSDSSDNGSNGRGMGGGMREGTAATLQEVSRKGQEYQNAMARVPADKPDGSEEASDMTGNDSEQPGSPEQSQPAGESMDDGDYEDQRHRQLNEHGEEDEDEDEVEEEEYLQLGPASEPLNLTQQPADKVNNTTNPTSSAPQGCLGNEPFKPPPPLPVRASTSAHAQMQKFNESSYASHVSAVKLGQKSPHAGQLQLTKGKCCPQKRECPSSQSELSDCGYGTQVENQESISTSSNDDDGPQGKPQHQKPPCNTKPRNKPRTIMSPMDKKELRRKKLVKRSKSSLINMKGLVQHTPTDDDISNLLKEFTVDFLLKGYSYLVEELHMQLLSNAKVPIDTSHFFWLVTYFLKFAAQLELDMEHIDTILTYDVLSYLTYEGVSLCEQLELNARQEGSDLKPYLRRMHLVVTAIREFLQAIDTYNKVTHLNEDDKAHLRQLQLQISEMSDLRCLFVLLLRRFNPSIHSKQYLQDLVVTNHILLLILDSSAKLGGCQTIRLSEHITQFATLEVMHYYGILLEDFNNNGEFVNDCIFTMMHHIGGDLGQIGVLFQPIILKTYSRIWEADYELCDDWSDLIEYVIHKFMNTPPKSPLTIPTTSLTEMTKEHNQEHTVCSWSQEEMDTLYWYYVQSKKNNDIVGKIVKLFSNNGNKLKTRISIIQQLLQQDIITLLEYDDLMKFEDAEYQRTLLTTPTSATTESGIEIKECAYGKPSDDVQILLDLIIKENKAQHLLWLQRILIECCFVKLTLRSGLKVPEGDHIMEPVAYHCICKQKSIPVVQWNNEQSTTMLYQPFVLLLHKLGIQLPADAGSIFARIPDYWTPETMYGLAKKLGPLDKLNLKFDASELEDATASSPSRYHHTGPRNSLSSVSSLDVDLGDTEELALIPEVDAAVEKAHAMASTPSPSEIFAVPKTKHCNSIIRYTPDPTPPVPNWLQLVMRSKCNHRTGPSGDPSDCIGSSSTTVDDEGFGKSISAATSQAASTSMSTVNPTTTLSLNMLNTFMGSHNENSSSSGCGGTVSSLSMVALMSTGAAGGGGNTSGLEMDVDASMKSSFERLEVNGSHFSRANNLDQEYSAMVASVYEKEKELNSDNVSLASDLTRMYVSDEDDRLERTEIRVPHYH",
  "data": [
    {"substance": "Period circadian protein (Drosophila melanogaster (Fruit fly)) (from UniProt P07663-1) E474R;H492S;R494D", "values": [
      {"measurement": "effect of a mutation on the interaction", "result": "disrupting interaction"}
    ]}
  ]
}
